Read-outs that look alike come from different tables or passages of the source.
Columns and labels:
[1] = biological target: T1, human PD-L1-His (human, UniProt Q9NZQ7 19-238, limits assumed); assay: ELISA, human PD-L1-His coated, anti-human IgG-HRP, OD450
T1 construct: not shown: His tag

[2] = biological target: T2, human PD-L1-Fc (human, UniProt Q9NZQ7 19-239); assay: BLI; PD-L1-Fc loaded on the sensor, scFv in solution
T2 construct: also called hPD-L1-Fc; human PD-L1-Fc (Sino Biological, 70110-D02H); not shown: Fc part

[3] = biological target: T2, human PD-L1-Fc; assay: as above; remark: listed apart in the source
[4] = biological target: T2, human PD-L1-Fc; assay: as above; remark: listed apart in the source
[5] = biological target: T2, human PD-L1-Fc; assay: BLI; against H-CDR2-WT (G55A)
[6] = biological target: T2, human PD-L1-Fc; assay: BLI; against L-CDR2-WT
[7] = biological target: T2, human PD-L1-Fc; assay: BLI; against L-CDR1-WT

B1: Hu4B6_HbLa (antibody, human IgG1, V domains shown)
VH: QVQLVQSGAEVKKPGASVKVSCKASGYTFTDYYMNWVRQAPGQGLEWMGDINPNNGGTSYNHKFKGRVTVTVDTSISTAYMELSRLRSDDTAVYYCVKWGDGPFAYWGQGTLVTVSS
VL: DIQMTQSPSSLSASVGDRVTITCKASQNVGAAVAWYQQKPGKAPKLLIYSASNRYTGVPSRFSGSGSGTDFTLTISSLQPEDIATYYCQQYSNYPTFGQGTKLEIK
With B1 the EC50 [1] was 2.38 nM.

B2: Hu4B6_HcLb (antibody, human IgG1, V domains shown)
VH: QVQLVQSGAEVKKPGASVKVSCKASGYVFTDYYMNWVRQAPGQGLEWMGDINPNNGGTSYNHKFKGRVTVTVDKSISTAYMELSRLRSDDTAVYYCARWGDGPFAYWGQGTLVTVSS
VL: DIQMTQSPSSLSASVGDRVTITCKASQNVGAAVAWYQQKPGKSPKLLIYSASNRYTGVPDRFSGSGSGTDFTLTISSLQPEDIATYYCQQYSNYPTFGQGTKLEIK
With B2 the EC50 [1] was 3.44 nM.

B3: Hu4B6_HbLb (antibody, human IgG1, V domains shown)
VH: QVQLVQSGAEVKKPGASVKVSCKASGYTFTDYYMNWVRQAPGQGLEWMGDINPNNGGTSYNHKFKGRVTVTVDTSISTAYMELSRLRSDDTAVYYCVKWGDGPFAYWGQGTLVTVSS
VL: DIQMTQSPSSLSASVGDRVTITCKASQNVGAAVAWYQQKPGKSPKLLIYSASNRYTGVPDRFSGSGSGTDFTLTISSLQPEDIATYYCQQYSNYPTFGQGTKLEIK
In the case of B3, the EC50 [1] is reported as 2.81 nM.

B4: Hu4B6_HaLb (antibody, human IgG1, V domains shown)
VH: QVQLVQSGAEVKKPGASVKVSCKASGYTFTDYYMNWVRQAPGQGLEWMGDINPNNGGTSYNHKFKGRVTVTVDTSISTAYMELSRLRSDDTAVYYCARWGDGPFAYWGQGTLVTVSS
VL: DIQMTQSPSSLSASVGDRVTITCKASQNVGAAVAWYQQKPGKSPKLLIYSASNRYTGVPDRFSGSGSGTDFTLTISSLQPEDIATYYCQQYSNYPTFGQGTKLEIK
For B4, the EC50 [1] was 6.26 nM.

B5: Hu4B6_HaLa (antibody, human IgG1, V domains shown)
VH: QVQLVQSGAEVKKPGASVKVSCKASGYTFTDYYMNWVRQAPGQGLEWMGDINPNNGGTSYNHKFKGRVTVTVDTSISTAYMELSRLRSDDTAVYYCARWGDGPFAYWGQGTLVTVSS
VL: DIQMTQSPSSLSASVGDRVTITCKASQNVGAAVAWYQQKPGKAPKLLIYSASNRYTGVPSRFSGSGSGTDFTLTISSLQPEDIATYYCQQYSNYPTFGQGTKLEIK
In the case of B5, the EC50 [1] is reported as 5.16 nM.

B6: Hu4B6_HcLa (antibody, human IgG1, V domains shown)
VH: QVQLVQSGAEVKKPGASVKVSCKASGYVFTDYYMNWVRQAPGQGLEWMGDINPNNGGTSYNHKFKGRVTVTVDKSISTAYMELSRLRSDDTAVYYCARWGDGPFAYWGQGTLVTVSS
VL: DIQMTQSPSSLSASVGDRVTITCKASQNVGAAVAWYQQKPGKAPKLLIYSASNRYTGVPSRFSGSGSGTDFTLTISSLQPEDIATYYCQQYSNYPTFGQGTKLEIK
In the case of B6, the EC50 [1] is reported as 5.74 nM.

B7: Hu4B6_HdLb (antibody, human IgG1, V domains shown)
VH: QVQLVQSGAEVKKPGASVKVSCKASGYVFTDYYMNWVRQAPGQSLEWMGDINPNNGGTSYNHKFKGRVTVTVDKSISTAYMELSRLRSDDTAVYYCVKWGDGPFAYWGQGTLVTVSS
VL: DIQMTQSPSSLSASVGDRVTITCKASQNVGAAVAWYQQKPGKSPKLLIYSASNRYTGVPDRFSGSGSGTDFTLTISSLQPEDIATYYCQQYSNYPTFGQGTKLEIK
For B7, the EC50 [1] was 1.47 nM.

B8: 4B6-HgLa scFv (wild-type sequence for affinity maturation) (scFv)
scFv: DIQMTQSPSSLSASVGDRVTITCKASQNVGAAVAWYQQKPGKAPKLLIYSASNRYTGVPSRFSGSGSGTDFTLTISSLQPEDIATYYCQQYSNYPTFGQGTKLEIKGGGGSGGGGSGGGGSQVQLVQSGAEVKKPGASVKVSCKASGYVFTDYYMNWVRQAPGQSLEWMGDINPNNAGTSYNHKFKGRVTVTVDKSISTAYMELSRLRSDDTAVYYCVKWGDGPFAYWGQGTLVTVSS
notes: written VL-linker-VH; also called L-CDR1-WT; L-CDR2-WT
Work on B8 yielded a Kd [2] of 28.2 nM, a kon [2] of 35800 M⁻¹ s⁻¹ and a Kd [3] of 27.6 nM. For the same binder, the kon [3] was 38100 M⁻¹ s⁻¹, the Kd [4] was 26.7 nM and the kon [4] was 46300 M⁻¹ s⁻¹.

B9: 4B6 scFv variant H-CDR2-4 (scFv)
scFv: DIQMTQSPSSLSASVGDRVTITCKASQNVGAAVAWYQQKPGKAPKLLIYSASNRYTGVPSRFSGSGSGTDFTLTISSLQPEDIATYYCQQYSNYPTFGQGTKLEIKGGGGSGGGGSGGGGSQVQLVQSGAEVKKPGASVKVSCKASGYVFTDYYMNWVRQAPGQSLEWMGDINPNNGLTSYNHKFKGRVTVTVDKSISTAYMELSRLRSDDTAVYYCVKWGDGPFAYWGQGTLVTVSS
notes: also called 4B6-H-CDR2-4
Work on B9 yielded a Fold increase [5] of 6.03 fold, a Kd [4] of 4.43 nM and a kon [4] of 117000 M⁻¹ s⁻¹.

B10: 4B6 scFv variant L-CDR2-2 (scFv)
scFv: DIQMTQSPSSLSASVGDRVTITCKASQNVGAAVAWYQQKPGKAPKLLIYSRSVRYTGVPSRFSGSGSGTDFTLTISSLQPEDIATYYCQQYSNYPTFGQGTKLEIKGGGGSGGGGSGGGGSQVQLVQSGAEVKKPGASVKVSCKASGYVFTDYYMNWVRQAPGQSLEWMGDINPNNAGTSYNHKFKGRVTVTVDKSISTAYMELSRLRSDDTAVYYCVKWGDGPFAYWGQGTLVTVSS
notes: also called 4B6-L-CDR2-2
With B10 the Fold increase [6] was 8.26 fold, the Kd [3] was 3.34 nM and the kon [3] was 162000 M⁻¹ s⁻¹.

B11: 4B6 scFv variant L-CDR1-2 (scFv)
scFv: DIQMTQSPSSLSASVGDRVTITCKASQNVPAAVAWYQQKPGKAPKLLIYSASNRYTGVPSRFSGSGSGTDFTLTISSLQPEDIATYYCQQYSNYPTFGQGTKLEIKGGGGSGGGGSGGGGSQVQLVQSGAEVKKPGASVKVSCKASGYVFTDYYMNWVRQAPGQSLEWMGDINPNNAGTSYNHKFKGRVTVTVDKSISTAYMELSRLRSDDTAVYYCVKWGDGPFAYWGQGTLVTVSS
notes: also called 4B6-L-CDR1-2
Binder B11 has a Fold increase [7] of 4.96 fold, a Kd [2] of 5.68 nM and a kon [2] of 271000 M⁻¹ s⁻¹.

B12: 4B6 scFv variant L-CDR1-1 (scFv)
scFv: DIQMTQSPSSLSASVGDRVTITCKASQNVGAIVAWYQQKPGKAPKLLIYSASNRYTGVPSRFSGSGSGTDFTLTISSLQPEDIATYYCQQYSNYPTFGQGTKLEIKGGGGSGGGGSGGGGSQVQLVQSGAEVKKPGASVKVSCKASGYVFTDYYMNWVRQAPGQSLEWMGDINPNNAGTSYNHKFKGRVTVTVDKSISTAYMELSRLRSDDTAVYYCVKWGDGPFAYWGQGTLVTVSS
notes: also called 4B6-L-CDR1-1
B12 was tested, and the Fold increase [7] was 4.08 fold, the Kd [2] was 6.91 nM and the kon [2] was 41200 M⁻¹ s⁻¹.

B13: 4B6 scFv variant L-CDR1-3 (scFv)
scFv: DIQMTQSPSSLSASVGDRVTITCKASQNVKGAVAWYQQKPGKAPKLLIYSASNRYTGVPSRFSGSGSGTDFTLTISSLQPEDIATYYCQQYSNYPTFGQGTKLEIKGGGGSGGGGSGGGGSQVQLVQSGAEVKKPGASVKVSCKASGYVFTDYYMNWVRQAPGQSLEWMGDINPNNAGTSYNHKFKGRVTVTVDKSISTAYMELSRLRSDDTAVYYCVKWGDGPFAYWGQGTLVTVSS
notes: also called 4B6-L-CDR1-3
In the case of B13, the Fold increase [7] is reported as 10.1 fold, the Kd [2] is reported as 2.78 nM and the kon [2] is reported as 91100 M⁻¹ s⁻¹.

B14: 4B6 scFv variant H-CDR2-2 (scFv)
scFv: DIQMTQSPSSLSASVGDRVTITCKASQNVGAAVAWYQQKPGKAPKLLIYSASNRYTGVPSRFSGSGSGTDFTLTISSLQPEDIATYYCQQYSNYPTFGQGTKLEIKGGGGSGGGGSGGGGSQVQLVQSGAEVKKPGASVKVSCKASGYVFTDYYMNWVRQAPGQSLEWMGDINPNNAQTQYNHKFKGRVTVTVDKSISTAYMELSRLRSDDTAVYYCVKWGDGPFAYWGQGTLVTVSS
notes: also called 4B6-H-CDR2-2
In the case of B14, the Fold increase [5] is reported as 11 fold, the Kd [4] is reported as 2.42 nM and the kon [4] is reported as 101000 M⁻¹ s⁻¹.

B15: 4B6 scFv variant H-CDR2-1 (scFv)
scFv: DIQMTQSPSSLSASVGDRVTITCKASQNVGAAVAWYQQKPGKAPKLLIYSASNRYTGVPSRFSGSGSGTDFTLTISSLQPEDIATYYCQQYSNYPTFGQGTKLEIKGGGGSGGGGSGGGGSQVQLVQSGAEVKKPGASVKVSCKASGYVFTDYYMNWVRQAPGQSLEWMGDINPNNADTMYNHKFKGRVTVTVDKSISTAYMELSRLRSDDTAVYYCVKWGDGPFAYWGQGTLVTVSS
notes: also called 4B6-H-CDR2-1
With B15 the Fold increase [5] was 7.6 fold, the Kd [4] was 3.52 nM and the kon [4] was 141000 M⁻¹ s⁻¹.

B16: 4B6 scFv variant L-CDR2-1 (scFv)
scFv: DIQMTQSPSSLSASVGDRVTITCKASQNVGAAVAWYQQKPGKAPKLLIYSNSHRYTGVPSRFSGSGSGTDFTLTISSLQPEDIATYYCQQYSNYPTFGQGTKLEIKGGGGSGGGGSGGGGSQVQLVQSGAEVKKPGASVKVSCKASGYVFTDYYMNWVRQAPGQSLEWMGDINPNNAGTSYNHKFKGRVTVTVDKSISTAYMELSRLRSDDTAVYYCVKWGDGPFAYWGQGTLVTVSS
notes: also called 4B6-L-CDR2-1
In the case of B16, the Fold increase [6] is reported as 3.42 fold, the Kd [3] is reported as 8.06 nM and the kon [3] is reported as 46800 M⁻¹ s⁻¹.

B17: 4B6 scFv variant H-CDR2-3 (scFv)
scFv: DIQMTQSPSSLSASVGDRVTITCKASQNVGAAVAWYQQKPGKAPKLLIYSASNRYTGVPSRFSGSGSGTDFTLTISSLQPEDIATYYCQQYSNYPTFGQGTKLEIKGGGGSGGGGSGGGGSQVQLVQSGAEVKKPGASVKVSCKASGYVFTDYYMNWVRQAPGQSLEWMGDINPNNAETLYNHKFKGRVTVTVDKSISTAYMELSRLRSDDTAVYYCVKWGDGPFAYWGQGTLVTVSS
notes: also called 4B6-H-CDR2-3
B17 showed a Fold increase [5] of 11 fold, a Kd [4] of 2.43 nM and a kon [4] of 116000 M⁻¹ s⁻¹.

B18: 4B6 scFv variant H-CDR2-5 (scFv)
scFv: DIQMTQSPSSLSASVGDRVTITCKASQNVGAAVAWYQQKPGKAPKLLIYSASNRYTGVPSRFSGSGSGTDFTLTISSLQPEDIATYYCQQYSNYPTFGQGTKLEIKGGGGSGGGGSGGGGSQVQLVQSGAEVKKPGASVKVSCKASGYVFTDYYMNWVRQAPGQSLEWMGDINPNNAQTVYNHKFKGRVTVTVDKSISTAYMELSRLRSDDTAVYYCVKWGDGPFAYWGQGTLVTVSS
notes: also called 4B6-H-CDR2-5
B18 was tested, and the Fold increase [5] was 11.1 fold, the Kd [4] was 2.4 nM and the kon [4] was 102000 M⁻¹ s⁻¹.

B19: Chimeri 4B6 (antibody, V domains shown)
VH: EVQLQQSGPELVKPGASVKISCKASGYVFTDYYMNWVKQSHGKSLEWIGDINPNNGGTSYNHKFKGKATVTVDKSSRTAYMELLSLTSEDSAVYYCVKWGDGPFAYWGQGTLVTVSA
VL: DIVMTQSQKFMSTSVGDRVSITCKASQNVGAAVAWYQQKPGQSPKLLIYSASNRYTGVPDRFTGSGSGTDFTLTISNMQSEDLADYFCQQYSNYPTFGSGTKLGIK
notes: spelling as printed; also called chimeric 4B6; mouse/chimeric antibody 4B6
B19 showed an EC50 [1] of 2.05 nM.

Source: patent US20250282874A1 (SUZHOU TRANSCENTA THERAPEUTICS, published 2025)
